Experimental data from PMC6019379, “RecA-like domain 2 of DNA-dependent ATPase A domain, a SWI2/SNF2 protein, mediates conformational integrity and ATP hydrolysis” (Bioscience Reports, 2018).

Molecular target: T1, ADAAD F507A (Bos taurus (bovine), UniProt Q9TTA5 221-940, F727A)
T1 sequence: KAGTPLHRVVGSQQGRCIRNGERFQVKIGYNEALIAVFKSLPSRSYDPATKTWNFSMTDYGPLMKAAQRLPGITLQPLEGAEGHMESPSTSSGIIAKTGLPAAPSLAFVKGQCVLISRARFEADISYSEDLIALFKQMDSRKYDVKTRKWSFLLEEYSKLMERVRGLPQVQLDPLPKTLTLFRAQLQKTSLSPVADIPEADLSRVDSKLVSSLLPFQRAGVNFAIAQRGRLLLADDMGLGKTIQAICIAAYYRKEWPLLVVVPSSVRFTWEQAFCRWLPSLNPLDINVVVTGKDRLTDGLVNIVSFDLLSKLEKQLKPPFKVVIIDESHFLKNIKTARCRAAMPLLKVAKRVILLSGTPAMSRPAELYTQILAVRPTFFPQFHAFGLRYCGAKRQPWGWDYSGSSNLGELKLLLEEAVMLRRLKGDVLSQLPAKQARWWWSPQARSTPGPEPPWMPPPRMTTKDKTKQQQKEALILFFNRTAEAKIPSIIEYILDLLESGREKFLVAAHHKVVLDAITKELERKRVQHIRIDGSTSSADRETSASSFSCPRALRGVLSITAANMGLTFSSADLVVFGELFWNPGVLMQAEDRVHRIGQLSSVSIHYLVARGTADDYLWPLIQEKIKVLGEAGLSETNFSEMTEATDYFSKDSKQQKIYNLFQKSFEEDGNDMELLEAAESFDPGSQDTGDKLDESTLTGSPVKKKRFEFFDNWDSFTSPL
Assay: intrinsic tryptophan fluorescence titration; no ATP; Fluorescence titration (ex 295 nm, em 340 nm), one-site saturation fit; buffer, salt, pH and temperature not given in the material. Wild-type ADAAD Kd values are cited from ref 24 and not listed
Settings: protein: recombinant; tags: His (Ni-NTA, pET-14b); hairpin

GCGCAATTGCGCTCGACGATTTTTTAGCGCAATTGCGC (structured_DNA) [slDNA (stem-loop DNA)]
Kd: 19 ± 4.5 nM
